The target of one experiment is T1, MBP-Rop^G11 (D45N) (Drosophila melanogaster, UniProt Q07327 1-597, D45N).
T1 construct: Rop (Ras opposite, Unc-18 orthologue), Drosophila melanogaster; PMAL-Rop with the point mutation of the Rop^G11 allele (Asp45 to Asn; nucleotide G133A) made by site-directed mutagenesis; Same construct as m1 with D45N; the mutation is that of the Rop^G11 allele of Harrison et al., 1994; also called recombinant Rop^G11 mutant protein; source: Rosetta cells (Novagen), purified (amylose resin, …)
T1 sequence (Q07327 whole entry D45N): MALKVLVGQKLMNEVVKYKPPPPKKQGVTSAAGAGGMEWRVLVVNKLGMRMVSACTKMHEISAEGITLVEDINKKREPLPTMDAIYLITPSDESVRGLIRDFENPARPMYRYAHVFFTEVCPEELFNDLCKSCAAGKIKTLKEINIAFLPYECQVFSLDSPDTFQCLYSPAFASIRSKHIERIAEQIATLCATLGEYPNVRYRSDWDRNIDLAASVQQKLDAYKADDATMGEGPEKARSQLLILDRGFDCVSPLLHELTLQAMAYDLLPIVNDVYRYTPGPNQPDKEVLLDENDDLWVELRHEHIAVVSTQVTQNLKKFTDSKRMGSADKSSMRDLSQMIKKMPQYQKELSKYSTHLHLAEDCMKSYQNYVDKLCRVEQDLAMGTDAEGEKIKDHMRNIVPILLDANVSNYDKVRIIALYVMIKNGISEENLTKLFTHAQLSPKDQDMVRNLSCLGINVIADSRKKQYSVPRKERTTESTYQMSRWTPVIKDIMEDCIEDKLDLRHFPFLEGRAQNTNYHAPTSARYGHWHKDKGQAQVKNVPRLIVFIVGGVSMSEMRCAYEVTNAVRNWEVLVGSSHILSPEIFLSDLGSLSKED
In words: pull-down; GST-syx1A^ΔC (2 ug) bound to GST bind resin, 1 hr at 4°C with MBP-Rop or MBP-Rop^G11 at 0-6 uM in NP40 buffer (1% NP-40, 150 mM NaCl, 2 mM EDTA, phosphate); SDS-PAGE, Coomassie, fraction bound quantified in ImageJ, Kd from a dose response curve fit (Prism 6); n = 2. The note with it: both partners purified.

Experiment [1] concerns the target T2, MBP-Rop (recombinant wild-type Rop, Drosophila Unc-18) (Drosophila melanogaster, UniProt Q07327 1-597).
T2 construct: Rop (Ras opposite, Unc-18 orthologue), Drosophila melanogaster; cDNA SD04216 amplified with primers from the start ATG to the stop codon and cloned into pMAL-c5E; Expressed from pMAL-c5E (NEB N8110); printed size of the fusion 110 kDa; also called MBP-Rop^WT; Ras opposite; source: Rosetta cells (Novagen), purified (amylose resin, eluted with maltose)
The experiment is described as above. The settings on record: both partners purified.

T2 sequence (Q07327 whole entry, the tested form may be a part): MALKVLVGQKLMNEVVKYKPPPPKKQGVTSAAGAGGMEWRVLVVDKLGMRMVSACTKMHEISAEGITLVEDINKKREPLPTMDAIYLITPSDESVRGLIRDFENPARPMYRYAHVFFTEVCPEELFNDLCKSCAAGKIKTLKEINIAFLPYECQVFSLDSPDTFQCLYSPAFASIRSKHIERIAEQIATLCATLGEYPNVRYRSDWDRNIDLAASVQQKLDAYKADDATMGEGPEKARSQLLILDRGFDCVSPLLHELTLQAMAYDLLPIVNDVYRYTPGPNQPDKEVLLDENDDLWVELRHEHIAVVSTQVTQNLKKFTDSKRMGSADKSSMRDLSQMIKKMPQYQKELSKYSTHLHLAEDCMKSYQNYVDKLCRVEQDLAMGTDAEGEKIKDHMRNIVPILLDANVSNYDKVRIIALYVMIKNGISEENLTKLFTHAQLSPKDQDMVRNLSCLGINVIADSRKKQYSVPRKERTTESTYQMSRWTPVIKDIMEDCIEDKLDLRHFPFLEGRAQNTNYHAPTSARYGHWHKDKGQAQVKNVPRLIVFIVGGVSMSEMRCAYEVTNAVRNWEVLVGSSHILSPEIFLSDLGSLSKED

B1: GST-syx1A^ΔC (Syntaxin1A, amino acids 1-268) (domain or fragment, Drosophila melanogaster, UniProt Q24547 1-268, looked up)
chain: MTKDRLAALHAAQSDDEEETEVAVNVDGHDSYMDDFFAQVEEIRGMIDKVQDNVEEVKKKHSAILSAPQTDEKTKQELEDLMADIKKNANRVRGKLKGIEQNIEQEEQQNKSSADLRIRKTQHSTLSRKFVEVMTEYNRTQTDYRERCKGRIQRQLEITGRPTNDDELEKMLEEGNSSVFTQGIIMETQQAKQTLADIEARHQDIMKLETSIKELHDMFMDMAMLVESQGEMIDRIEYHVEHAMDYVQTATQDTKKALKYQSKARRKK
notes: Syntaxin 1A, Drosophila melanogaster, amino acids 1-268; Expressed from pGEX-4T1; printed size of the fusion 60 kDa; The nucleotide change A802T would turn codon 268 into a stop, so the chain may end at residue 267 rather than 268; also called recombinant Syntaxin1A
Turning to B1, the Kd – broadly, a measure of binding affinity in units of concentration – came out at 36.1 µM with MBP-Rop^G11 (D45N) and 0.4 µM in experiment [1].
